The results in this text go back to US20260250421A1 (BIOCYTOGEN PHARMACEUTICALS BEIJING, published 2026).

Substitutions are numbered along the chain they refer to.

The target of test [1] is T1, His-tagged monkey TROP2 protein (cynomolgus monkey; Rhesus …, UniProt A0A5F8AGB8 27-274).
T1 construct: also called cTROP2-His; ACRO Biosystems Cat# TR2-R52H3
T1 sequence: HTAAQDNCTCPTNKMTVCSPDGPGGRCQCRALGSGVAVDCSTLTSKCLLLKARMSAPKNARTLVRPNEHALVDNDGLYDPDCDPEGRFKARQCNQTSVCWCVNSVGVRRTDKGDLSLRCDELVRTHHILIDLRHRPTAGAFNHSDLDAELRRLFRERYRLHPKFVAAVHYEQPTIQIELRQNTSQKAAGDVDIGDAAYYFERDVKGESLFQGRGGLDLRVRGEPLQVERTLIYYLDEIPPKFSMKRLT
The test can be described thus: SPR Biacore 8K, Ab on Protein A chip.

Test [2] concerns the target T2, human PTK7 on human cancer cell lines (human, UniProt Q13308 31-1070).
T2 construct: Endogenous PTK7 of human tumour cell lines; also called PTK7 on A-431, NCI-H520, NCI-N87, SK-OV-3, BT-20, HCC1954, NCI-H226, NCI-H358, HCT116, PC-3, NCI-H292, NCI-H1975 cells
T2 sequence: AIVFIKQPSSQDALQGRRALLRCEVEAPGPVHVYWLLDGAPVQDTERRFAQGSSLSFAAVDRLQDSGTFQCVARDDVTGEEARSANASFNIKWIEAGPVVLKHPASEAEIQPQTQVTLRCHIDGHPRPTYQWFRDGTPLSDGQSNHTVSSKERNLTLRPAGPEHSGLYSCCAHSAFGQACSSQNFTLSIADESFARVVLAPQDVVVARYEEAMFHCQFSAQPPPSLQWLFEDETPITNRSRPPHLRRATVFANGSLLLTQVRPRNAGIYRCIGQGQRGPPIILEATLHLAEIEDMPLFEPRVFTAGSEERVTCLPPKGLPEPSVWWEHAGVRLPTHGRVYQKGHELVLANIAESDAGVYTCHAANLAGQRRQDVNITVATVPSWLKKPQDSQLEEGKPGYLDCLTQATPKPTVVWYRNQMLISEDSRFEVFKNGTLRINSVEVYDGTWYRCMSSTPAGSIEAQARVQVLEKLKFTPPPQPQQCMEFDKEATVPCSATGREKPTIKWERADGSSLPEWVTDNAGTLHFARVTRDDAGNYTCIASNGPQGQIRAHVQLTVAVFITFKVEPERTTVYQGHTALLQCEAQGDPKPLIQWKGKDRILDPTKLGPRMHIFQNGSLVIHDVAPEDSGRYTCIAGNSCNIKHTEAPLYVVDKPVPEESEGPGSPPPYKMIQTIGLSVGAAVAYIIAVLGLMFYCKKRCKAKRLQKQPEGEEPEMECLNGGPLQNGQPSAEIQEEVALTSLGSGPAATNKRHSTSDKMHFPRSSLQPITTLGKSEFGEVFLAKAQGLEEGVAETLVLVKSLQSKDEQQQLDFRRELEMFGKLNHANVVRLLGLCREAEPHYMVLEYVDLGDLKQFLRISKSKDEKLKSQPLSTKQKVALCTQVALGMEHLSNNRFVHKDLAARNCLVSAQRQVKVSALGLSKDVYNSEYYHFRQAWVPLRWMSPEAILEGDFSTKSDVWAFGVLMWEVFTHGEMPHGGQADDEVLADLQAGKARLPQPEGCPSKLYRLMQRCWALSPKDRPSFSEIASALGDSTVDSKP
Nature of the test: flow cytometry on NCI-H1975 cells co-expressing PTK7 and TROP2; the single curve of the bispecific is not resolved between the two targets; anti-hIgG-Fc Alexa Fluor 647 secondary antibody, MFI [A]. Here is the method:
This experiment was performed to test the binding activities of the anti-PTK7/TROP2 bispecific antibodies to different tumor cell lines. NCI-H1975 cells or NUGC-4 cells were transferred to a 96-well plate at a density of 5×10⁴ cells/well respectively. The sample antibody was added to the 96-well plate, and incubated at 4° C. for 30 min.

Test [3] deals with T3, His-tagged human PTK7 protein (human, UniProt Q13308 31-704).
T3 construct: Bought protein; also called hPTK7-His; not shown: His tag
T3 sequence: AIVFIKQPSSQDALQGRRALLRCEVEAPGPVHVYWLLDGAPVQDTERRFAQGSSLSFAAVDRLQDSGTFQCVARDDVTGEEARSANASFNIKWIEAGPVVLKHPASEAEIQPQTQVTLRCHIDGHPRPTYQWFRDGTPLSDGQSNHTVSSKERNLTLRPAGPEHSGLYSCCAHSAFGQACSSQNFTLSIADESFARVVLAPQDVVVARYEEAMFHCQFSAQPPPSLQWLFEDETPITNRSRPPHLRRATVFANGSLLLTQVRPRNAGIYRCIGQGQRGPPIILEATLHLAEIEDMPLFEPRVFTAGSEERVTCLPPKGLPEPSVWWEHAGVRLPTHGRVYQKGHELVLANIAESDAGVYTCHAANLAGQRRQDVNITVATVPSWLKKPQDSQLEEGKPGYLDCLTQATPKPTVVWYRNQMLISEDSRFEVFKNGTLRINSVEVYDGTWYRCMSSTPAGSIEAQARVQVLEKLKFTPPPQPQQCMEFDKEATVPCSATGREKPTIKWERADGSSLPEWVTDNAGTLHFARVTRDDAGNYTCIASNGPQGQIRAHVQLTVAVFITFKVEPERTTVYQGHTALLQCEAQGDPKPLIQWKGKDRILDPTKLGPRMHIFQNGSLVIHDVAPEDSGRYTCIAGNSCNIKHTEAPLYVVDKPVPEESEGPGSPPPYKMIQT
Nature of the test: BLI Octet binning on hPTK7-His; competitor hu24 analog. The procedure:
Relative positions of target protein epitope between a pair of purified anti-PTK7 antibodies were analyzed by Biolayer Interferometry (BLI) using ForteBio Octet system at 30° C. A total of […] purified antibodies were used: 1A7, 1A11, 1F2, 2A5, 2D11, 2F5, 3C4 and 3E6.
1×HBS-EP+ buffer (10 mM 4-(2-hydroxyethyl)-1-piperazineethanesulfonic acid (HEPES), 150 mM NaCl, 3 mM ethylenediaminetetraacetic acid (EDTA) and 0.05% P20, pH7.4) diluted from HBS-EP+ buffer (10×) was used as the running buffer throughout the experiment. His-tagged human PTK7 protein was captured at a flow rate of 10 μL/min, and 200 nM of antibody (Analyte 1) was injected at a flow rate of 30 μL/min to bind the ligand. Another antibody (Analyte 2) was injected under the same conditions to determine whether the binding of different antibodies interfered with each other. The binding time was 300 s for each antibody.
The binding value of each antibody was obtained using Data Analysis HT 12.0. To quantify the interference of one antibody binding to another, a binding ratio was calculated to compare each pair of antibodies. The binding ratio is defined as the binding value of the second antibody (Analyte 2), divided by the binding value of the first antibody (Analyte 1). […] In general, antibody pairs that interfere with each other have the same or overlapping epitopes.

B1: 3C4-18E9 (bispecific antibody, human IgG1, V domains shown)
VH 1: QVQLEQSRAEVKKPGESLRISCKGSGYSFTSYWISWVRQMPGKGLEWMGRIDPSDSYTNYNPSFQGHVTISADKSISTAYLQWSSLKASDTAMYYCARRDGSYFDFDYWGQGTLVTVSS
VH 2: QLQLQQSGPGLLKPSETLSLTCTVSGGSISSSYYFWGWIRQPPGKGLEWIGAIYYIGNTHYNPSLKSRVTISIDTSKNQFSLNLNSVTAADTAIYYCARYEDTWNWFDPWGQGTLVTVSS
VL: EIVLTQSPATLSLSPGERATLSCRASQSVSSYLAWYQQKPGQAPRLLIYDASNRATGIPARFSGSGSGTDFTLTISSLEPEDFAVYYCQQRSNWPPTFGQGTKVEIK
notes: which arm carries the knob is stated only for 3C4-6F7; also called anti-PTK7/TROP2 bispecific antibody 3C4-18E9
In test [1], B1 came in with a Kd of 3.16 nM, a koff of 0.00104 s⁻¹ and a kon of 329000 M⁻¹ s⁻¹. Also, the “EC50 (read off the curve)” value in test [2] was roughly 0.7 µg/mL.

B2: 3C4 (antibody, V domains shown)
VH: B1 VH 1
VL: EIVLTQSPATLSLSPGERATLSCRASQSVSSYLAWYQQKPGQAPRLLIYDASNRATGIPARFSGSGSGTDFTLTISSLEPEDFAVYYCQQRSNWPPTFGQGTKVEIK
notes: also called anti-PTK7 antibody 3C4
On to B2, for which, in test [3], the binding ratio was found to be 1.22.

B3: 3E6 (antibody, V domains shown)
VH: B1 VH 1 with E5V, Q6E, R8G, K23R, N59K, N61S, S102D
VL: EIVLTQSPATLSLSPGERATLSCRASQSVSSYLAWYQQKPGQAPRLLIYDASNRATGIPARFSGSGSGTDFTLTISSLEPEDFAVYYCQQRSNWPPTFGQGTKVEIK
notes: also called anti-PTK7 antibody 3E6
As for B3, in test [3], the binding ratio is 0.98.

B4: 1A7 (antibody, human IgG1, V domains shown)
VH: QVQLVESGGGVVQPGRSLRLSCAASGFTFSNYGMHWVRQAPGKGLEWVAVIYYDGSNKFYADSVKGRFTISRDNSKNTLYLQMSSLRAEDTAVYYCARDVAPPGSRAEYFHHWGQGTLVTVSS
VL: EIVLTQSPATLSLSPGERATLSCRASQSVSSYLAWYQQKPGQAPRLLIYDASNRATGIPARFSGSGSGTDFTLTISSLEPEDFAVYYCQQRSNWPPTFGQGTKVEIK
notes: also called anti-PTK7 antibody 1A7
As for B4, in test [3], the binding ratio came out at 0.2.

B5: 2A5 (antibody, V domains shown)
VH: B4 VH with E6Q, Y52W, S56R, F59Y, S84N, P103A, H111Q, H112N
VL: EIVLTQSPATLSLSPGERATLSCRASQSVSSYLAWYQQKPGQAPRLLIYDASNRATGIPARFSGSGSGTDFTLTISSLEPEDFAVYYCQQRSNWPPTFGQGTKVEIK
notes: also called anti-PTK7 antibody 2A5
With B5, in test [3], the binding ratio amounted to 0.04.

B6: 2D11 (antibody, V domains shown)
VH: B4 VH with N31S, Y52F, F59Y, S84N, A92S, P102A, H111Q, H112N
VL: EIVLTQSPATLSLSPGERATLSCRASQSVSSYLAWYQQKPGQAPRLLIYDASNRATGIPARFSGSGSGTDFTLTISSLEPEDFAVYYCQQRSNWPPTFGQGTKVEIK
notes: also called anti-PTK7 antibody 2D11
Consider B6, for which the binding ratio in test [3] came out at 0.21.

B7: 2F5 (antibody, V domains shown)
VH: B4 VH with A23V, V50I, F59Y, S84N, P102A, P103A, F110L
VL: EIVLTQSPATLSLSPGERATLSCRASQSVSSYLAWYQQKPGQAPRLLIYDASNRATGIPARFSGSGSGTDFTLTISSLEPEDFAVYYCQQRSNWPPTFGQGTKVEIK
notes: also called anti-PTK7 antibody 2F5
B7: the binding ratio in test [3] is 0.19.

B8: 1F2 (antibody, V domains shown)
VH: QVQLVQSGGGLVQPGGSLRLSCAASGFTFSRYEMNWVRQAPGKGLEWVSYINSIGSAINYADSVKGRFTISRDNAKNSLYLQMRSLRAEDTAVYYCVREDNWNPGYWGQGTLVTVSS
VL: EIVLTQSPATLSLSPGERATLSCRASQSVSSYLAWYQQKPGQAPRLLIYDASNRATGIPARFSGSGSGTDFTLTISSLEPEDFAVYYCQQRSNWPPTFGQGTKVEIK
notes: also called anti-PTK7 antibody 1F2
For B8, the binding ratio in test [3] was determined as 0.95.

B9: 1A11 (antibody, V domains shown)
VH: QVQLVQSGPGLVKPSETLSLTCTVSGGSINSYYWNWIRQPPGKGLEWIGYIYYSGSTNYNPSLKSRVTISVDTSKNQFSLKLSSVTAADTAVYYCARDPHDYIRGHFDLWGRGTLFTVSS
VL: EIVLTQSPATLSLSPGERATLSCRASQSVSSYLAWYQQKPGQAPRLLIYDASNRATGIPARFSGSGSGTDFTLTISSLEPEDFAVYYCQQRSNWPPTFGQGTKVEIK
notes: also called anti-PTK7 antibody 1A11
Turning to B9, the binding ratio in test [3] was 0.97.
